Results taken from patent EP0866075B1, “Method to treat microbial infections by uncoupling of phosphotransferase system and appropriate agents therefor” (Arpida AG,, priority 1997, dated 1998).

Biological target: enzyme I (phosphoenolpyruvate-protein phosphotransferase, EC 2.7.3.9) of the E. coli phosphotransferase system (E. coli) (UniProt P08839)
Test: cell-based or functional assay

In the case of “HPr protein (phosphorylcarrier protein HPr) (from UniProt P0AA04 1-85)”, the uncoupling P;Ipeptide/h is reported as 2.7 Pi/peptide/h.
